Residue numbers refer to the chain shown, from its start. Where two headings read alike, the source gives them in different places.
B1: xGPC3/DualAE05-xSG1350k1349hV11 (bispecific antibody, V domains shown)
VH 1: QVQLVQSGAEVKKPGASVTVSCKASGYTFTDYEMHWIRQPPGEGLEWIGAIDGPTPDTAYSEKFKGRVTLTADKSTSTAYMELSSLTSEDTAVYYCTRFYSYTYWGQGTLVTVSS
VL 1: DIVMTQSPLSLPVTPGEPASISCRSSQPLVHSNRNTYLHWYQQKPGQAPRLLIYKVSNRFSGVPDRFSGSGSGTDFTLKISRVEAEDVGVYYCGQGTQVPYTFGQGTKLEIK
VH 2: QVQLVESGGGLVQPGRSLRLSCAASGFKFSNVWFHWVRQAPGKGLEWVAQIKDYYNAYAAYYAPSVKGRFTISRDDSKNSIYLQMNSLKTEDTAVYYCHYVHYASASTLLPAEGVDAWGQGTTVTVSS
VL 2: B1 VL 1 with R24Q, S25P, P28E, L29V, S32M, S61P, G94A, Q98S, V99H, Y101F
notes: 1+1 tri-specific, CrossMab format (VH/VL of the GPC3 arm exchanged, charge mutations in CH1/CL of the Dual arm); also called xGPC3/DualAE05-xSG1350kSG1349hV11; AE05 CrossMab
B2: GPC3EK/DualAE05KE-SG1365k1363hV11 (bispecific antibody, V domains shown)
VH 1: B1 VH 1 with Q39E
VL 1: B1 VL 1 with Q43K
VH 2: B1 VH 2 with Q39K
VL 2: DIVMTQSPLSLPVTPGEPASISCQPSQEVVHMNRNTYLHWYQEKPGQAPRLLIYKVSNRFPGVPDRFSGSGSGTDFTLKISRVEAEDVGVYYCAQGTSHPFTFGQGTKLEIK
notes: 1+1 tri-specific, FAST-Ig format; Full chains not tied by name
B3: GPC3KE/DualAE05EK-SG1363k1365hV11 (bispecific antibody, V domains shown)
VH 1: B1 VH 1 with Q39K
VL 1: B1 VL 1 with Q43E
VH 2: B1 VH 2 with Q39E
VL 2: B2 VL 2 with E43K
notes: as for B2
B4: xGPC3/DualAE15-xSG1350k1349hV11 (bispecific antibody, V domains shown)
VH 1: B1 VH 1
VL 1: B1 VL 1
VH 2: B1 VH 2 with A60G, A63H, S105A, T108Q
VL 2: B2 VL 2 with E43Q
notes: 1+1 tri-specific, CrossMab format; Full chains not tied by name; also called xGPC3DualAE15-xSG1350kSG1349hV11; xGPC3/DualAE15-xSG1350kSG1349hV11
B5: H1572L0581 (antibody, V domains shown)
VH: B1 VH 2 with Y54K
VL: B2 VL 2 with E43Q
notes: Dual-Ig with an Fc; also called DualAE26; dBBDu183H1572/dBBDu072L0581
B6: H0883 (antibody, V domains shown)
VH: B1 VH 2 with K28T, V32A, F34M, Y54K, Y55G, H99R, E113F
VL: B2 VL 2 with P25A, V29L, E43Q, H99V
notes: Dual-Ig with an Fc; also called DualAE27; dBBDu183H0883/dBBDu072L
B7: H0888L0581 (antibody, V domains shown)
VH: B1 VH 2 with F34M, Y54K, Y55W, V101I, E113F, V115I
VL: B2 VL 2 with E43Q
notes: Dual-Ig with an Fc; also called DualAE02; dBBDu183H0888/dBBDu072L0581
B8: H1573L0581 (antibody, V domains shown)
VH: B1 VH 2 with E113F
VL: B2 VL 2 with E43Q
notes: Dual-Ig with an Fc; also called DualAE07; dBBDu183H1573/dBBDu072L0581
B9: H1579L0581 (antibody, V domains shown)
VH: B1 VH 2 with N31H, Y54K, E113F
VL: B2 VL 2 with E43Q
notes: Dual-Ig with an Fc; also called DualAE25; dBBDu183H1579/dBBDu072L0581
B10: H1595L0581 (antibody, V domains shown)
VH: B1 VH 2 with V32T, F34M, Y54K, V101I, E113F
VL: B2 VL 2 with E43Q
notes: Dual-Ig with an Fc; also called DualAE24; dBBDu183H1595/dBBDu072L0581
B11: H1644L0939 (antibody, V domains shown)
VH: B1 VH 2 with K28V
VL: B2 VL 2 with E43Q, R59V, S98H
notes: Dual-Ig with an Fc; also called DualAE16; dBBDu183H1644/dBBDu072L0939
B12: GPC3/DualAE05-SG1363k1364hV11 (bispecific antibody, V domains shown)
VH 1: B1 VH 1
VL 1: B1 VL 1
VH 2: B1 VH 2
VL 2: B2 VL 2 with E43Q
notes: 1+1 tri-specific, FAST-Ig format
B13: GPC3/DualAE05-SG1364k1363hV11 (bispecific antibody, V domains shown)
VH 1: B1 VH 1
VL 1: B1 VL 1
VH 2: B1 VH 2
VL 2: B2 VL 2 with E43Q
notes: 1+1 tri-specific, FAST-Ig format; Same variable regions as m28, different constant-region charge mutations; Full chains not tied by name

Key:
Human CD3eg linker [1] = target: T1, Human CD3eg linker (human); experiment: SPR Biacore 8K, Ab captured on anti-human Fc, CD3 as analyte, 25 C
T1 construct: Single-chain soluble construct; also called recombinant human CD3
T1 chain: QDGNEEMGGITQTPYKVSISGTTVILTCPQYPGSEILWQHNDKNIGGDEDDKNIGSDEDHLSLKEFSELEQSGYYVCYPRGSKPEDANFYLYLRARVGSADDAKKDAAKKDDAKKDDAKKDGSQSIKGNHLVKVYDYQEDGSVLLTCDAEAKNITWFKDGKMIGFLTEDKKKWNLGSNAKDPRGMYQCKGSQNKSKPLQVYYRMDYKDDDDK
Method: (§1) Binding affinity of Dual-Ig antibodies to human CD3 were assessed at 25 degrees C. using Biacore 8K instrument (GE Healthcare). Anti-human Fc (GE Healthcare) was immobilized onto all flow cells of a CM4 sensor chip using amine coupling kit (GE Healthcare). Antibodies were captured onto the anti-Fc sensor surfaces, then recombinant human CD3 or CD137 was injected over the flow cell. All antibodies and analytes were prepared in ACES pH 7.4 containing 20 mM ACES, 150 mM NaCl, 0.05% Tween 20, 0.005% NaN₃. Sensor surface was regenerated each cycle with 3M MgCl₂. […] CD137 binding affinity assay was conducted in same condition except assay temperature was set at 37 degrees C.

[2] = target: T2, Human CD137 extracellular domain (ECD) (human); experiment: SPR Biacore 8K, Ab captured on anti-human Fc, CD137 as analyte, 37 C
T2 construct: also called Human CD137 ECD; recombinant human CD137
Method: as §1

Human CD3eg linker [3] = target: T1, Human CD3eg linker; experiment: SPR Biacore 8K, 25 C; reference xGPC3/DualAE05-xSG1350kSG1349hV11
Method: as §1
(§2) This is caused by faster off rate in FAST-Ig construct. […] This is caused by faster off rate in FAST-Ig construct.

Human CD3eg linker [4] = target: T1, Human CD3eg linker; experiment: SPR (Biacore T200, 25 degrees C), in-tandem blocking assay; antibody captured on anti-human Fc, 8 µM hCD3eg injected as analyte
Method: (§3) Biacore in-tandem blocking assay was performed to characterize non-simultaneous binding of Dual-Ig Ab for both CD3 and CD137. The assay was performed on Biacore T200 instrument (GE Healthcare) at 25 degrees C. in ACES pH 7.4 buffer containing 20 mM ACES, 150 mM NaCl, 0.05% Tween 20, 0.005% NaN₃. Anti-human Fc (GE Healthcare) was immobilized onto all flow cells of a CM4 sensor chip using amine coupling kit (GE Healthcare). Antibodies were captured onto the anti-Fc sensor surfaces, then 8 micro M CD3 was injected over the flow cell followed by an identical injection of 8 micro M CD137 in the presence of 8 micro M CD3. An increased of binding response for second injection was indicative of binding to different paratopes therefore a simultaneous binding interactions; whereas no enhancement or decreased of binding response for the 2nd injection was indicative of binding to the same or overlapping or adjacent paratopes, therefore a non-simultaneous binding interactions.

[5] = target: T2, Human CD137 extracellular domain (ECD); experiment: SPR (Biacore T200, 25 degrees C), in-tandem blocking assay; antibody captured on anti-human Fc, first saturated with 8 µM hCD3eg, then 8 µM hCD137 injected in the presence of 8 µM hCD3eg
Method: as §3

Human CD3eg linker [6] = target: T1, Human CD3eg linker; experiment: SPR Biacore 8K, Ab captured on anti-human Fc, CD3 as analyte, 25 C
Method: (§4) Binding affinity of Dual-Fab antibodies (Dual-Ig) to human CD3 were assessed at 25 degrees C. using Biacore 8K instrument (GE Healthcare). Anti-human Fc (GE Healthcare) was immobilized onto all flow cells of a CM4 sensor chip using amine coupling kit (GE Healthcare). Antibodies were captured onto the anti-Fc sensor surfaces, then recombinant human CD3 or CD137 was injected over the flow cell. All antibodies and analytes were prepared in ACES pH 7.4 containing 20 mM ACES, 150 mM NaCl, 0.05% Tween 20, 0.005% NaN₃. Sensor surface was regenerated each cycle with 3M MgCl₂. […] CD137 binding affinity assay was conducted in same condition except assay temperature was set at 37 degrees C.

[7] = target: T2, Human CD137 extracellular domain (ECD); experiment: SPR Biacore 8K, Ab captured on anti-human Fc, CD137 as analyte, 37 C; remark: listed apart in the source
Method: as §4

[8] = target: T2, Human CD137 extracellular domain (ECD); experiment: SPR Biacore 8K, 37 C; reference xGPC3/DualAE05-xSG1350kSG1349hV11
Method: as §1, §2

T2 sequence (chain, as listed by the source limits assumed): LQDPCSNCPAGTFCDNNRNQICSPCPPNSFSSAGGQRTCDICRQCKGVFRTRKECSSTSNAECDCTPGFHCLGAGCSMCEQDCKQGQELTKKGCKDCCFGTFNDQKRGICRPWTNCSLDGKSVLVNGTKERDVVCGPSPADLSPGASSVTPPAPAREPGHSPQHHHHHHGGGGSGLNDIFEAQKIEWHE

| Binder | Kd (Human CD3eg linker [1]) [nM] | koff (Human CD3eg linker [1]) [s⁻¹] | kon (Human CD3eg linker [1]) [M⁻¹ s⁻¹] | Kd [2] [nM] | koff [2] [s⁻¹] | kon [2] [M⁻¹ s⁻¹] | fold weaker binding affinity than CrossMab xSG1350 (Human CD3eg linker [3]) [fold] | binding result (Human CD3eg linker [4]) | binding result [5] | Kd (Human CD3eg linker [6]) [nM] | koff (Human CD3eg linker [6]) [s⁻¹] | kon (Human CD3eg linker [6]) [M⁻¹ s⁻¹] | Kd [7] [nM] | koff [7] [s⁻¹] | kon [7] [M⁻¹ s⁻¹] | fold weaker binding affinity than CrossMab prepared antibodies [8] [fold] |
| --- | --- | --- | --- | --- | --- | --- | --- | --- | --- | --- | --- | --- | --- | --- | --- | --- |
| B1 | 296 | 0.0275 | 92900 | 40.5 | 0.000525 | 13000 |  |  |  |  |  |  |  |  |  |  |
| B2 | 751 | 0.0628 | 83500 | 43.5 | 0.00063 | 14500 | ~3 |  |  |  |  |  |  |  |  |  |
| B3 | 806 | 0.0611 | 75900 | 38 | 0.000506 | 13300 | ~3 |  |  |  |  |  |  |  |  |  |
| B4 |  |  |  |  |  |  |  | binds | binds |  |  |  |  |  |  |  |
| B5 |  |  |  |  |  |  |  |  |  | 286 | 0.028 | 97700 | 52.1 | 0.000722 | 13900 |  |
| B6 |  |  |  |  |  |  |  |  |  | 110 | 0.00999 | 90700 |  |  |  |  |
| B7 |  |  |  |  |  |  |  |  |  | 20.2 | 0.00192 | 95000 | 208 | 0.00311 | 15000 |  |
| B8 |  |  |  |  |  |  |  |  |  | 158 | 0.0188 | 121000 | 70.6 | 0.00103 | 14600 |  |
| B9 |  |  |  |  |  |  |  |  |  | 273 | 0.034 | 124000 | 275 | 0.00406 | 14800 |  |
| B10 |  |  |  |  |  |  |  |  |  | 57 | 0.00658 | 116000 | 195 | 0.00269 | 13800 |  |
| B11 |  |  |  |  |  |  |  |  |  | 1450 | 0.0808 | 55800 | 36.8 | 0.000444 | 12100 |  |
| B12 | 314 | 0.0278 | 88500 | 79.5 | 0.00102 | 12800 |  |  |  |  |  |  |  |  |  | ~2 |
| B13 | 282 | 0.0263 | 93400 | 54.7 | 0.000745 | 13600 |  |  |  |  |  |  |  |  |  | ~2 |
